Assay results from publication PMC7035355.

Target: FBW7 (UniProt Q969H0)
Test: co-immunoprecipitation, immunoblot
Conditions: reference: wild type Mcl-1; sites S159

## Mcl-1 (from UniProt Q07820) S159A
  binding against the reference: weaker
